Data published in patent US20050059089A1 (priority 2003, published 2005).
Entries after “also recorded” stand apart in the source; their conditions may differ. Like-named read-outs stand apart in the source and are kept apart here.

Legend:
GPCR142 [1] = target: T1, GPCR142 (Homo sapiens, UniProt Q8TDU9, L329S); assay: Ca2+ mobilization assay, 293 cells co-expressing GPCR142 and Gqi5; format: cell-based; parameters: The complete coding region of human GPCR142 was PCR-amplified from human genomic DNA; expressed in transfected cells; HEK293 co-transfected with Gqi5 (Ca2+)
T1 sequence (Q8TDU9 whole entry L329S): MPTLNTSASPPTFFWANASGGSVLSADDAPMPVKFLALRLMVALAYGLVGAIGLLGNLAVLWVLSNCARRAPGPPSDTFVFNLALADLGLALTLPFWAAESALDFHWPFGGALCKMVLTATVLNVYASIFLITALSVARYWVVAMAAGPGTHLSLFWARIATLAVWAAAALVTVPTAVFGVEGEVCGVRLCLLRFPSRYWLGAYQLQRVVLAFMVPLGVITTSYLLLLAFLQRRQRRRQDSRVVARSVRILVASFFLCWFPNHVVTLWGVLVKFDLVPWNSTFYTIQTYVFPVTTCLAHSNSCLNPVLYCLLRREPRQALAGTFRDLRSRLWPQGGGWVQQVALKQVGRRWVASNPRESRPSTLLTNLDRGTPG
Experimental: (§1) Human embryonic kidney (HEK) 293 cells were transfected with GPCR135,.GPCR142 or co-transfected with Gqi5 (Conklin et al. (1993), Nature 363, 274-280) or Gα16 (Amatruda et al. (1991), Proc. Natl. Acad. Sci. U.S.A. 88, 5587-5591) expressing plasmids using LipofectAmine. Two days after transfection, cells were detached with PBS plus 10 mM EDTA. The detached cells were washed with DMEM-F12 medium (without phenol red, Invitrogen) and seeded in black poly-D lysine coated 96-well plates (BD Biosciences, San Jose, Calif.) at a cell density of 50,000 cell/well.

GPCR142 [2] = target: T1, GPCR142; assay: Ca2+ mobilization assay (FLIPR), HEK293 cells co-expressing GPCR142 and Gα16; format: cell-based; parameters: The complete coding region of human GPCR142 was PCR-amplified from human genomic DNA; expressed in transfected cells; HEK293 co-transfected with Gα16 (Ca2+)
Experimental: as §1

mouse GPCR142 = target: T2, mouse GPCR142 (Mus musculus, UniProt Q7TQP4); assay: Ca2+ mobilization assay, mouse GPCR142 and Gα16; format: cell-based; conditions: cells expressing mouse GPCR142 and Gα16
T2 construct: The complete coding region of the mouse GPCR142 was deposited in GenBank; expressed in transfected cells; CHO membranes (GTPγS, by the general protocol); HEK293 with Gα16 (Ca2+)
T2 sequence (Q7TQP4 1-414): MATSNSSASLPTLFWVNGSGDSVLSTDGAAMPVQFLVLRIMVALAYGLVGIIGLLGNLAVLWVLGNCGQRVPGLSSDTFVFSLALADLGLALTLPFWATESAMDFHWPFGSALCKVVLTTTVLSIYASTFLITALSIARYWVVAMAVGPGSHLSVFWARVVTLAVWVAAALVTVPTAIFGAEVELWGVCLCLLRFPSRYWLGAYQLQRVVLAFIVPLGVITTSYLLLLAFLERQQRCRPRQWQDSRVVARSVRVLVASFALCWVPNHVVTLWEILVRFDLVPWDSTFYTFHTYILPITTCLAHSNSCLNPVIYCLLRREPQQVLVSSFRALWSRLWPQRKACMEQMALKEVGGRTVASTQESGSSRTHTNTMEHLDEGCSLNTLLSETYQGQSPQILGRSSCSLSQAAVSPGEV
Experimental: as §1

GPCR142 [3] = target: T1, GPCR142; assay: GTPγS binding assay, GPCR142 expressing cell membranes; format: biochemical; parameters: The complete coding region of human GPCR142 was PCR-amplified from human genomic DNA; expressed in transfected cells; CHO membranes (GTPγS); HEK293 co-transfected with Gα16 (Ca2+)
Experimental: (§2) The GPCR142 expression vector described above was transfected into CHO cells using Lipofectamine (Invitrogen) according to the manufacturer's instructions. Two days after transfection, the cells were harvested and the cell membranes were prepared by homogenizing the cells in cold 50 mM Tris-HCl, 5 mM EDTA, pH 7.5 followed by centrifugation at 4° C. 1000 g for 10 min. The supernatant was centrifuged at 4° C. 20,000 g for 30 min and the pellet was re-suspended in GTPγS binding buffer: 50 mM Tris-HCl, pH 7.4, 10 mM MgCl2, 1 mM EDTA, pH 8.0, and 100 mM NaCl using a polytron tissue homogenizer. Protease inhibitors were added to the buffer at concentrations of 1 mM PMSF, 10 μg/ml of pepstatin A, 10 μg/ml of leupeptin. Cell membranes and different concentrations of ligands were added to 96-well plates and incubated at room temperature for 20 min. ^35S-GTPγS (NEN) was then added to each well at a final concentration of […] in a final volume of 200 μL. The reactions were allowed to proceed at room temperature for 1 h, and then the mixtures were filtered though a 96-well GFC filter plate (Packard) and washed with cold washing buffer: 50 mM Tris-HCl, pH 7.4, 10 mM MgCl2. Fifty microliters of Microscint-40 (Packard) was added to each well and the plate was counted on a top counter (TopCount NTX, Packard).

GPCR135 = target: T3, GPCR135 (Homo sapiens, UniProt Q9NSD7); assay: GTPγS binding assay, GPCR135 expression membranes; format: biochemical; parameters: expressed in transfected cells; host or cells: CHO membranes (GTPγS); HEK293 with Gα16 or Gqi5 (Ca2+)
T3 sequence (Q9NSD7 1-469): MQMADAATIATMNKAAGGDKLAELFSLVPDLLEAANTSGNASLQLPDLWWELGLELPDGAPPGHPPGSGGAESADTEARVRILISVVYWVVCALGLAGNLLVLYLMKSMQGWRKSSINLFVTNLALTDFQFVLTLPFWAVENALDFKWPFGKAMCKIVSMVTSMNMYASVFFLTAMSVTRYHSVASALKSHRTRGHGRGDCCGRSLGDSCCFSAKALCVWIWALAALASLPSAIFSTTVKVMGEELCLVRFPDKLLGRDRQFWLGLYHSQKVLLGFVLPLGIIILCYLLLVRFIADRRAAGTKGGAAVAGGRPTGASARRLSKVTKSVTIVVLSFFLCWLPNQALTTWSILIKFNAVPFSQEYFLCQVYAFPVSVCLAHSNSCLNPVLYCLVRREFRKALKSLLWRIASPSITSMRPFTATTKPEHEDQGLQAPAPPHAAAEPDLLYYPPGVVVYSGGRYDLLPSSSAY
Experimental: as §2
The same assay was performed as described above, except using GPCR135 in place of GPCR142.

Question: What does the source list for “relaxin3: Human relaxin3 (SEQ ID NO: 6), produced recombinantly; mature peptide of A- and B-chain linked by disulfide bridges”?
Answer: stimulation of Ca2+ signaling (GPCR142 [1]): No relaxin3-stimulated Ca^2+ signaling was observed; stimulation of Ca2+ signaling (GPCR142 [1]; listed as Relaxin3): does not stimulate any detectable Ca^2+ signal; stimulation of Ca2+ mobilization (GPCR142 [2]): stimulated Ca2+ mobilization; also recorded: stimulated a strong Ca^2+ signal; also recorded: stimulates Ca^2+ signaling; Ca2+ response (mouse GPCR142): did not stimulate detectable Ca^2+ response; stimulation of 35S-GTPγS binding (agonist activity) (GPCR142 [3]): stimulate; stimulation of 35S-GTPγS binding (agonist activity) (GPCR142 [3]; listed as human recombinant relaxin3): stimulated GTPγS binding; stimulation of GTPγS binding (GPCR135): stimulated GTPγS binding
